This note sets out measurements from PMC2765987 (2009).

B1: FLAG-tagged PP6R3 (full-length, residues 1-873) [human] / PP6 catalytic subunit, endogenous [human (endogenous in HEK293, HeLa, HepG2, Jurkat)] (parent complex)
chain 1: MFWKFDLHSSSHIDTLLEREDVTLKELMDEEDVLQECKAQNRKLIEFLLKAECLEDLVSFIIEEPPQDMDEKIRYKYPNISCELLTSDVSQMNDRLGEDESLLMKLYSFLLNDSPLNPLLASFFSKVLSILISRKPEQIVDFLKKKHDFVDLIIKHIGTSAIMDLLLRLLTCIEPPQPRQDVLNWLNEEKIIQRLVEIVHPSQEEDRHSNASQSLCEIVRLSRDQMLQIQNSTEPDPLLATLEKQEIIEQLLSNIFHKEKNESAIVSAIQILLTLLETRRPTFEGHIEICPPGMSHSACSVNKSVLEAIRGRLGSFHELLLEPPKKSVMKTTWGVLDPPVGNTRLNVIRLISSLLQTNTSSINGDLMELNSIGVILNMFFKYTWNNFLHTQVEICIALILASPFENTENATITDQDSTGDNLLLKHLFQKCQLIERILEAWEMNEKKQAEGGRRHGYMGHLTRIANCIVHSTDKGPNSALVQQLIKDLPDEVRERWETFCTSSLGETNKRNTVDLVTTCHIHSSSDDEIDFKETGFSQDSSLQQAFSDYQMQQMTSNFIDQFGFNDEKFADQDDIGNVSFDRVSDINFTLNTNESGNIALFEACCKERIQQFDDGGSDEEDIWEEKHIAFTPESQRRSSSGSTDSEESTDSEEEDGAKQDLFEPSSANTEDKMEVDLSEPPNWSANFDVPMETTHGAPLDSVGSDVWSTEEPMPTKETGWASFSEFTSSLSTKDSLRSNSPVEMETSTEPMDPLTPSAAALAVQPEAAGSVAMEASSDGEEDAESTDKVTETVMNGGMKETLSLTVDAKTETAVFKSEEGKLSTSQDAACKDAEECPETAEAKCAAPRPPSSSPEQRTGQPSAPGDTSVNGPV
chain 2: MAPLDLDKYVEIARLCKYLPENDLKRLCDYVCDLLLEESNVQPVSTPVTVCGDIHGQFYDLCELFRTGGQVPDTNYIFMGDFVDRGYYSLETFTYLLALKAKWPDRITLLRGNHESRQITQVYGFYDECQTKYGNANAWRYCTKVFDMLTVAALIDEQILCVHGGLSPDIKTLDQIRTIERNQEIPHKGAFCDLVWSDPEDVDTWAISPRGAGWLFGAKVTNEFVHINNLKLICRAHQLVHEGYKFMFDEKLVTVWSAPNYCYRCGNIASIMVFKDVNTREPKLFRAVPDSERVIPPRTTTPYFL

The experiment covers variants of B1. Description: co-immunoprecipitation (anti-FLAG) with quantitative fluorescent immunoblotting; expressed in HEK293 cells; endogenous PP6c; 3 independent experiments; parent: 100; read off a plot.
For chain 1 E259K, chain 1 E262K, the percent of parent is ~64 PP6c / FLAG (wild type = 100). For chain 1 E204K, chain 1 E205K, the percent of parent is ~75 PP6c / FLAG (wild type = 100). Consider chain 1 D113R, for which the percent of parent was ~91 PP6c / FLAG (wild type = 100).
